In patent publication US20210388040A1:
Each block holds one substance with its values, some of them ahead of it.

Legend:
ACTL6A (human) [1] = molecular target: ACTL6A (human) (UniProt O96019); test: HA-bait purification from HEK-293T nuclear extract, mass spectrometry, peptide count
ACTL6B (human) = ACTL6B (human) (UniProt O94805); test: as above
ARID2 (human) = ARID2 (human) (UniProt Q68CP9); test: as above
BCL7A (human) [2] = molecular target: BCL7A (human) (UniProt Q4VC05); test: as above
BCL7B (human) = BCL7B (human) (UniProt Q9BQE9); test: as above
BCL7C (human) [3] = molecular target: BCL7C (human) (UniProt Q8WUZ0); test: as above
DPF2 (human) = DPF2 (human) (UniProt Q92785); test: as above
PBRM1 (human) = PBRM1 (human) (UniProt Q86U86); test: as above
PHF10 (human) = PHF10 (human) (UniProt Q8WUB8); test: as above
SMARCA2 (human) [4] = molecular target: SMARCA2 (human) (UniProt P51531); test: as above
Sequence of SMARCA2 (human) (P51531 whole entry): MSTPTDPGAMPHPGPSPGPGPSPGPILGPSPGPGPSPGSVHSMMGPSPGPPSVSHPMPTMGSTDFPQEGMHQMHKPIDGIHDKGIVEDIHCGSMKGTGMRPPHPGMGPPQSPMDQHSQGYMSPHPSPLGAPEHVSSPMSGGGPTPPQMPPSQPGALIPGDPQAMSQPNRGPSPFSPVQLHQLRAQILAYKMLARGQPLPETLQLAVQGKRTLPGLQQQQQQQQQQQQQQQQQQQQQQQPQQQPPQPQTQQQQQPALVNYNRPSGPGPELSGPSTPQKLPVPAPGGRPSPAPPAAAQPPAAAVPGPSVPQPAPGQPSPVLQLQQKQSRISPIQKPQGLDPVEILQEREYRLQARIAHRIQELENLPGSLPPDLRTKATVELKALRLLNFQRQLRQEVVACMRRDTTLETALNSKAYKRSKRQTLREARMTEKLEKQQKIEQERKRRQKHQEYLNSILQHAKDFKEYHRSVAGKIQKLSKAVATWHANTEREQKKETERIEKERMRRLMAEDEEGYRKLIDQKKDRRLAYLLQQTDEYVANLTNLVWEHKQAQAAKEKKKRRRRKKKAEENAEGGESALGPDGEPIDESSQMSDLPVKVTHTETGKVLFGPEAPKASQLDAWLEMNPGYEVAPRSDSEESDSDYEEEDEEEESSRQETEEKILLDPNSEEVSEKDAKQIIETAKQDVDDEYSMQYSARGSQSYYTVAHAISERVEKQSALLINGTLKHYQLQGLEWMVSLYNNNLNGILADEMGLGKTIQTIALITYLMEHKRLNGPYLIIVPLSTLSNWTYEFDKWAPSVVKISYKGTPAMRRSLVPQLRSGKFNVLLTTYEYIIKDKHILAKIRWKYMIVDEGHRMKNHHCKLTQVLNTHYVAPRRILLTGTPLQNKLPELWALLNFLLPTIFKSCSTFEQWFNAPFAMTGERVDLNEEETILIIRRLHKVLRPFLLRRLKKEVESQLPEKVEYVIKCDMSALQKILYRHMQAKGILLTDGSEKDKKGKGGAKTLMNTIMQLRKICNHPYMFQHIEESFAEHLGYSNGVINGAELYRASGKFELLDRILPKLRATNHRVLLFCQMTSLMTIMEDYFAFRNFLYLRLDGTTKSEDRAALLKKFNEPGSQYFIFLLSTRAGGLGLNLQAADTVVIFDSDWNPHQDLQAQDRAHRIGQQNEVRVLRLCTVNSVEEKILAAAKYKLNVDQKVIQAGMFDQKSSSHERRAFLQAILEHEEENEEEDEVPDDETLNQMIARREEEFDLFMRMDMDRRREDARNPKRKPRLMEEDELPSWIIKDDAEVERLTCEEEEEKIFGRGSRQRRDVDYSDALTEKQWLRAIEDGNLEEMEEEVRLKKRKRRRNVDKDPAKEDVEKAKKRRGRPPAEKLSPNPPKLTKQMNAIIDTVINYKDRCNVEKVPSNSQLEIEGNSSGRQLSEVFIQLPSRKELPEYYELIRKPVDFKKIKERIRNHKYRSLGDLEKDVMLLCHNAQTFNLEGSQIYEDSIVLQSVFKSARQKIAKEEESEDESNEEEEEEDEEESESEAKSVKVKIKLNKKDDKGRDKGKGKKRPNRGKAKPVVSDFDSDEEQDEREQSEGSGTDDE

SMARCA4 (human) [5] = molecular target: SMARCA4 (human) (UniProt P51532); test: as above
SMARCB1 (human) [6] = molecular target: SMARCB1 (human) (UniProt Q12824); test: as above
SMARCC1 (human) [7] = molecular target: SMARCC1 (human) (UniProt Q92922); test: as above
SMARCC2 (human) [8] = molecular target: SMARCC2 (human) (UniProt Q8TAQ2); test: as above
Sequence of SMARCC2 (human) (Q8TAQ2 whole entry): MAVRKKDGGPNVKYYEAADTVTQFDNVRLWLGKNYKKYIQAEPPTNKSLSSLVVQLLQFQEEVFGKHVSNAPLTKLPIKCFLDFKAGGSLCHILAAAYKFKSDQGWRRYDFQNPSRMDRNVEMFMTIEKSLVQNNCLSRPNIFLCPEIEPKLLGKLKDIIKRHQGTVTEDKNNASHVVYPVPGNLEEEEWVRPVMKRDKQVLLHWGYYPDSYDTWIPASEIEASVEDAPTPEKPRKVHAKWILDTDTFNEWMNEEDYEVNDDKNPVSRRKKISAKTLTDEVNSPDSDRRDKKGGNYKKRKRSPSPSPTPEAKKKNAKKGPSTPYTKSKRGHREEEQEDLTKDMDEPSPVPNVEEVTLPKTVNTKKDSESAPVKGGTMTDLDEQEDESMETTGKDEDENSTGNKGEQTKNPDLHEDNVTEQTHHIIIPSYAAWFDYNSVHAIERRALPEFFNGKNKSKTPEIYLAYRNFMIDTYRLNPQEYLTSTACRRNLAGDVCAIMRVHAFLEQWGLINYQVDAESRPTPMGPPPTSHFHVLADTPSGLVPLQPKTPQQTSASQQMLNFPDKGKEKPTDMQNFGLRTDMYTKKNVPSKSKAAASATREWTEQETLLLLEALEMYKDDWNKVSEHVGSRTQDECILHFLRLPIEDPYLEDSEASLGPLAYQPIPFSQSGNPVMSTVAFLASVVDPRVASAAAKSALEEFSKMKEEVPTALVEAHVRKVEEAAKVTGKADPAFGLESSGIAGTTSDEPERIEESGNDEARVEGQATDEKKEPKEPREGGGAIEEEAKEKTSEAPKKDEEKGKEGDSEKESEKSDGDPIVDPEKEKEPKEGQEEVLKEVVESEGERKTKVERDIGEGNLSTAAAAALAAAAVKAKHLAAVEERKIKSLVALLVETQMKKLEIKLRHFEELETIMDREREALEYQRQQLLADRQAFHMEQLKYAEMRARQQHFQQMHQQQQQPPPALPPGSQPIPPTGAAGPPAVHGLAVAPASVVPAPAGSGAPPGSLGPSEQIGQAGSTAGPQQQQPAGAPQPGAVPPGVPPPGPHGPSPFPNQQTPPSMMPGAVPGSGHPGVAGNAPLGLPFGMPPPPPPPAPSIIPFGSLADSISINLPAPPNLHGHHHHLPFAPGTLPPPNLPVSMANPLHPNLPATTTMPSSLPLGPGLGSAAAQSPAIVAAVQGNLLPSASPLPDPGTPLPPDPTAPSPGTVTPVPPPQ

SMARCD2 (human) [9] = molecular target: SMARCD2 (human) (UniProt Q92925); test: as above
Sequence of SMARCD2 (human) (Q92925 whole entry): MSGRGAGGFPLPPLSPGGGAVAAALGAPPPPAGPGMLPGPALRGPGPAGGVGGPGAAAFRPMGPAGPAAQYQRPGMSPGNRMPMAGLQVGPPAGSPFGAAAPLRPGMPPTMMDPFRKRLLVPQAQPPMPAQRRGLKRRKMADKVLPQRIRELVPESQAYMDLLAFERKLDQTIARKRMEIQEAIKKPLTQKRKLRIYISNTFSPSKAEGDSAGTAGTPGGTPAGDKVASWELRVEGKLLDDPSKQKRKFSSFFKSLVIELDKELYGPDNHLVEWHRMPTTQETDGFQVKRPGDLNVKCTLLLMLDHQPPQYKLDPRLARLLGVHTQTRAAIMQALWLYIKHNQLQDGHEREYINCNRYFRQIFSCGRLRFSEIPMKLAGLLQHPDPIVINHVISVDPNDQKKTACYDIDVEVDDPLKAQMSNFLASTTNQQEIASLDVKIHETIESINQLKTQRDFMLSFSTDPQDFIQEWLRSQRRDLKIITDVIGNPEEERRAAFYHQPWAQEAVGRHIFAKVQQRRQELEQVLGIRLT

SMARCD3 (human) [10] = molecular target: SMARCD3 (human) (UniProt Q6STE5); test: as above
SMARCE1 (human) [11] = molecular target: SMARCE1 (human) (UniProt Q969G3); test: as above
Sequence of SMARCE1 (human) (Q969G3 whole entry): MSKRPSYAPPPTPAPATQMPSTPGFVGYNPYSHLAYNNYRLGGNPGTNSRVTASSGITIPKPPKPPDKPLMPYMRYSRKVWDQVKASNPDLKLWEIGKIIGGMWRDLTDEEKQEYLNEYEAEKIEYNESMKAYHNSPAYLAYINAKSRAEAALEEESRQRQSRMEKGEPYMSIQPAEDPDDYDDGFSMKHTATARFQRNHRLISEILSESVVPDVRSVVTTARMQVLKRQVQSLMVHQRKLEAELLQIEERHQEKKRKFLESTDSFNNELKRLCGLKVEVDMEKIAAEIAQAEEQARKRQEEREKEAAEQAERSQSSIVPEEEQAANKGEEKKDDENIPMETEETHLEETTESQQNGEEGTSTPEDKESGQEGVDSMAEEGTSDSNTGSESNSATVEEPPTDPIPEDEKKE

GLTSCR1 (human) = GLTSCR1 (human) (UniProt Q9NZM4); test: as above
GLTSCR1L (human) = GLTSCR1L (human) (UniProt Q6AI39); test: as above
SMARCD1 (human) [12] = molecular target: SMARCD1 (human) (UniProt Q96GM5); test: as above
Sequence of SMARCD1 (human) (Q96GM5 whole entry): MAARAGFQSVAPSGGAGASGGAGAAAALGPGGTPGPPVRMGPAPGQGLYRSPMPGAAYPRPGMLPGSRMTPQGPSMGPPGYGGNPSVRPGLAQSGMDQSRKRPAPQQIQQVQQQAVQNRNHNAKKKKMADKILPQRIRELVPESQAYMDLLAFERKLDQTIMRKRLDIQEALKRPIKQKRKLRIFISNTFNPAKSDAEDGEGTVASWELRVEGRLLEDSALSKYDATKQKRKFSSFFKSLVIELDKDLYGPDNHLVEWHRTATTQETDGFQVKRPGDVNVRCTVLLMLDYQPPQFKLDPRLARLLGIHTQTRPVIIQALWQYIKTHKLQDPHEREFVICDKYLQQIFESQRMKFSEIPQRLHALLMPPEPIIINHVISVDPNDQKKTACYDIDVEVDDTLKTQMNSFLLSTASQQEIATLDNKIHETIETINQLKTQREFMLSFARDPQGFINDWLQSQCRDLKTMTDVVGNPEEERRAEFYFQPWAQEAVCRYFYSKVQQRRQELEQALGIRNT

SS18 (human) [13] = molecular target: SS18 (human) (UniProt Q15532); test: as above
ACTL6A (human) [14] = molecular target: ACTL6A (human) (UniProt O96019); test: HA-bait purification from HEK-293T nuclear extract, glycerol gradient fractions 13-14, mass spectrometry, peptide count
ARID1A (human) = ARID1A (human) (UniProt O14497); test: as above
ARID1B (human) = ARID1B (human) (UniProt Q8NFD5); test: as above
BCL7A (human) [15] = molecular target: BCL7A (human) (UniProt Q4VC05); test: as above
BCL7C (human) [16] = molecular target: BCL7C (human) (UniProt Q8WUZ0); test: as above
SMARCA2 (human) [17] = molecular target: SMARCA2 (human) (UniProt P51531); test: as above
SMARCA4 (human) [18] = molecular target: SMARCA4 (human) (UniProt P51532); test: as above
SMARCB1 (human) [19] = molecular target: SMARCB1 (human) (UniProt Q12824); test: as above
SMARCC1 (human) [20] = molecular target: SMARCC1 (human) (UniProt Q92922); test: as above
SMARCC2 (human) [21] = molecular target: SMARCC2 (human) (UniProt Q8TAQ2); test: as above
SMARCD1 (human) [22] = molecular target: SMARCD1 (human) (UniProt Q96GM5); test: as above
SMARCD2 (human) [23] = molecular target: SMARCD2 (human) (UniProt Q92925); test: as above
SMARCD3 (human) [24] = molecular target: SMARCD3 (human) (UniProt Q6STE5); test: as above
SMARCE1 (human) [25] = molecular target: SMARCE1 (human) (UniProt Q969G3); test: as above
SS18 (human) [26] = molecular target: SS18 (human) (UniProt Q15532); test: as above
SS18L1 (human) = SS18L1 (human) (UniProt O75177); test: as above

Sequence of ACTL6A (human) (O96019 2-429 limits assumed): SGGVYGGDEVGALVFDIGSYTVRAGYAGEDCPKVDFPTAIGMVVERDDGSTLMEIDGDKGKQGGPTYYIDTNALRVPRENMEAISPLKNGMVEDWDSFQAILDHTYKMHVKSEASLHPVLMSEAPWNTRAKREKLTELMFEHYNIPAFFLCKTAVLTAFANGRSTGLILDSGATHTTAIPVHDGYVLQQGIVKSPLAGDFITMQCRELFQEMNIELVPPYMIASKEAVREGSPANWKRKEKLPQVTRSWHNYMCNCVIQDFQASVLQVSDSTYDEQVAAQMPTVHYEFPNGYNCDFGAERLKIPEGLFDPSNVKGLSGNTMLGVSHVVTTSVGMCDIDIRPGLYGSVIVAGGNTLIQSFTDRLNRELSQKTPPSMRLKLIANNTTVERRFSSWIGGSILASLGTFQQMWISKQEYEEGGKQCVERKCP
Sequence of BCL7A (human) (Q4VC05 whole entry): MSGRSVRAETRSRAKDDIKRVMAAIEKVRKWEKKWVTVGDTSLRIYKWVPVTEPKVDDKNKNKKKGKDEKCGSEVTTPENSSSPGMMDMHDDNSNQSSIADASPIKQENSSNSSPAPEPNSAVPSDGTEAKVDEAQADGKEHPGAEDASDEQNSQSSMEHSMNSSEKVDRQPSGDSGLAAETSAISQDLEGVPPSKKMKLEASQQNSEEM

Total (ACTL6A (human) [1]): 44 peptides
Unique (ACTL6A (human) [1]): 28 peptides
Total (ACTL6B (human)): 1 peptides
Unique (ACTL6B (human)): 1 peptides
Total (ARID2 (human)): 157 peptides
Unique (ARID2 (human)): 67 peptides
Total (BCL7A (human) [2]): 36 peptides
Unique (BCL7A (human) [2]): 21 peptides
Total (BCL7B (human)): 4 peptides
Unique (BCL7B (human)): 3 peptides
Total (BCL7C (human) [3]): 17 peptides
Unique (BCL7C (human) [3]): 10 peptides
Total (DPF2 (human)): 1 peptides
Unique (DPF2 (human)): 1 peptides
Total (PBRM1 (human)): 404 peptides
Unique (PBRM1 (human)): 147 peptides
Total (PHF10 (human)): 58 peptides
Unique (PHF10 (human)): 31 peptides
Total (SMARCA2 (human) [4]): 146 peptides
Unique (SMARCA2 (human) [4]): 85 peptides
Total (SMARCA4 (human) [5]): 107 peptides
Unique (SMARCA4 (human) [5]): 53 peptides
Total (SMARCB1 (human) [6]): 59 peptides
Unique (SMARCB1 (human) [6]): 26 peptides
Total (SMARCC1 (human) [7]): 203 peptides
Unique (SMARCC1 (human) [7]): 83 peptides
Total (SMARCC2 (human) [8]): 136 peptides
Unique (SMARCC2 (human) [8]): 64 peptides
Total (SMARCD2 (human) [9]): 59 peptides
Unique (SMARCD2 (human) [9]): 34 peptides
Total (SMARCD3 (human) [10]): 23 peptides
Unique (SMARCD3 (human) [10]): 20 peptides
Total (SMARCE1 (human) [11]): 81 peptides
Unique (SMARCE1 (human) [11]): 40 peptides
Substance: HA-BRD7 (from UniProt Q9NPI1 1-651)

Unique (ACTL6A (human) [1]): 10 peptides
Total (BCL7A (human) [2]): 6 peptides
Unique (BCL7A (human) [2]): 5 peptides
Total (BCL7C (human) [3]): 3 peptides
Unique (BCL7C (human) [3]): 3 peptides
Total (GLTSCR1 (human)): 62 peptides
Unique (GLTSCR1 (human)): 33 peptides
Total (GLTSCR1L (human)): 16 peptides
Unique (GLTSCR1L (human)): 14 peptides
Total (SMARCA2 (human) [4]): 49 peptides
Unique (SMARCA2 (human) [4]): 27 peptides
Total (SMARCA4 (human) [5]): 31 peptides
Unique (SMARCA4 (human) [5]): 20 peptides
Total (SMARCC1 (human) [7]): 53 peptides
Unique (SMARCC1 (human) [7]): 36 peptides
Total (SMARCD1 (human) [12]): 33 peptides
Unique (SMARCD1 (human) [12]): 22 peptides
Total (SS18 (human) [13]): 1 peptides
Unique (SS18 (human) [13]): 1 peptides
Substance: HA-BRD9 (from UniProt Q9H8M2 1-597)

Total (ACTL6A (human) [14]): 61 peptides
Unique (ACTL6A (human) [14]): 23 peptides
Total (ARID1A (human)): 311 peptides
Unique (ARID1A (human)): 114 peptides
Total (ARID1B (human)): 147 peptides
Unique (ARID1B (human)): 85 peptides
Total (BCL7A (human) [15]): 36 peptides
Total (BCL7C (human) [16]): 13 peptides
Unique (BCL7C (human) [16]): 7 peptides
Total (SMARCA2 (human) [17]): 130 peptides
Unique (SMARCA2 (human) [17]): 74 peptides
Total (SMARCA4 (human) [18]): 88 peptides
Unique (SMARCA4 (human) [18]): 47 peptides
Total (SMARCB1 (human) [19]): 62 peptides
Unique (SMARCB1 (human) [19]): 22 peptides
Total (SMARCC1 (human) [20]): 359 peptides
Unique (SMARCC1 (human) [20]): 87 peptides
Total (SMARCC2 (human) [21]): 105 peptides
Unique (SMARCC2 (human) [21]): 52 peptides
Total (SMARCD1 (human) [22]): 83 peptides
Unique (SMARCD1 (human) [22]): 37 peptides
Total (SMARCD2 (human) [23]): 51 peptides
Unique (SMARCD2 (human) [23]): 32 peptides
Total (SMARCD3 (human) [24]): 23 peptides
Unique (SMARCD3 (human) [24]): 20 peptides
Total (SMARCE1 (human) [25]): 118 peptides
Unique (SMARCE1 (human) [25]): 40 peptides
Total (SS18 (human) [26]): 2 peptides
Unique (SS18 (human) [26]): 2 peptides
Total (SS18L1 (human)): 3 peptides
Unique (SS18L1 (human)): 2 peptides
Substance: HA-DPF2 (from UniProt Q92785 1-391)
